Data taken from PMC5013273.
Blank lines part the entries; values can stand above or below the molecule they belong to.

Target: zona pellucida of in vitro matured (IVM) porcine oocytes (pig (endogenous on porcine oocytes))

ZP digestion time in 0.5% pronase after 1 hr exposure of IVM porcine oocytes to 5, 50 and 125 μg/ml rOVGP1: 989 min
Molecule: full-length rabbit OVGP1, recombinant, histidine-tagged (natural protein)

ZP digestion time in 0.5% pronase after 1 hr exposure of IVM porcine oocytes to 125 and 250 μg/ml pOVGP1: 102 min
B1: full-length porcine OVGP1 (oviduct-specific glycoprotein, oviductin), recombinant, histidine-tagged (natural protein)
chain: HKLVCYFANWAFSRPGPASILPRDLDPFLCTHLVFAFASMNDSQIVAKDARDESIFYPEFNQLKERNEKLKTLLSIGGWNFGTSRFTTMLSTFTNREKFIRSAIGLLRTHGFDGLDLFFLYPGLRGSPRRDRWNFLFLLEELLLAFRREAQLTMRPRLLLSAAVSADPHVIQKAYDVRLLGRLLDFINVLSYDLHGSWEKVTGHNSPLFSLSDDPKSSAYTMNYWRKLGAPPEKLLMGFPTYGRTFRLLKASKNELGAEAVGPASPGKYTKQAGFLAYYEVCSFVQRAKKRWIDHQYVPYAYRGKEWVGYDDDISFSYKAFFIKKEHFGGAMVWTLDLDDVRGTFCGTGPFPLVYMLNDLLLKAEVSSTLSPGFGLSTTVNSSRTCPESLAVTKDLTTDLGILPLGGEAVATETHGRSDNMTVTPGGGLVAPTRPTLSFGKLTVAPEGKTESPGEKAMTPVGHPSVTPGDMSVPPVPIQTGDRITPPRRQAVAPEKMTLPSGKRSD

ZP digestion time in 0.5% pronase after 1 hr exposure of IVM porcine oocytes to 125 and 250 μg/ml pOVGP1AB: 7.75 h
B2: truncated porcine OVGP1 lacking region D (regions A and B, 481 aa), recombinant, histidine-tagged (domain or fragment)
chain: HKLVCYFANWAFSRPGPASILPRDLDPFLCTHLVFAFASMNDSQIVAKDARDESIFYPEFNQLKERNEKLKTLLSIGGWNFGTSRFTTMLSTFTNREKFIRSAIGLLRTHGFDGLDLFFLYPGLRGSPRRDRWNFLFLLEELLLAFRREAQLTMRPRLLLSAAVSADPHVIQKAYDVRLLGRLLDFINVLSYDLHGSWEKVTGHNSPLFSLSDDPKSSAYTMNYWRKLGAPPEKLLMGFPTYGRTFRLLKASKNELGAEAVGPASPGKYTKQAGFLAYYEVCSFVQRAKKRWIDHQYVPYAYRGKEWVGYDDDISFSYKAFFIKKEHFGGAMVWTLDLDDVRGTFCGTGPFPLVYMLNDLLLKAEVSSTLSPGFGLSTTVNSSRTCPESLAVTKDLTTDLGILPLGGEAVATETHGRSDNMTVTPGGGLVAPTRPTLSFGKLTVAPEGKTESPGEKAMTP
